Data published in article PMC4941734, “Structural and dynamics studies of a truncated variant of CI repressor from bacteriophage TP901-1” (Scientific Reports, 2016).

How the values were obtained:
[1] = molecular target: CI∆58, truncated CI repressor from bacteriophage TP901-1 (residues 1–122) (bacteriophage TP901-1) (UniProt O48503); test: native MS; apo CI∆58 6 μM in 250 mM ammonium acetate, pH 6.8; nano-ESI, quadrupole time-of-flight
[2] = molecular target: CI∆58, truncated CI repressor from bacteriophage TP901-1 (residues 1–122) (bacteriophage TP901-1) (UniProt O48503); test: SEC; HiLoad 26/60 Superdex 75; native molecular weight estimated by comparison with globular protein standards
[3] = tested on: CI-NTD (bacteriophage TP901-1 (host Lactococcus lactis)); test: EMSA; conditions: 0.4 nM DNA; EMSA: ~0.4-0.5 nM Cy5 DNA, binding solution of ref 3 (not given), on ice 30 min, 2% agarose, 1x TBE, 0 °C; NMR: 300 mM NaCl, 298 K; native MS: 250 mM …
[4] = molecular target: T1, CI∆58 (CI repressor, C-terminally truncated) (bacteriophage TP901-1 (host Lactococcus lactis)) (UniProt O48503); test: EMSA; conditions: 0.4 nM DNA; EMSA: ~0.4-0.5 nM Cy5 DNA, binding solution of ref 3 (not given), on ice 30 min, 2% agarose, 1x TBE, 0 °C; NMR: 300 mM NaCl, 298 K; native MS: 250 mM …
T1 sequence: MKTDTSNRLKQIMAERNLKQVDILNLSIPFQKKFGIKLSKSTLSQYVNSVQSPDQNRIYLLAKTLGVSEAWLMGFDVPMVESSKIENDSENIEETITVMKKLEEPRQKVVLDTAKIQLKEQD

[5] = molecular target: the molecule itself; test: SEC; HiLoad 26/60 Superdex 75; native molecular weight estimated by comparison with globular protein standards

## CI∆58, truncated CI repressor from bacteriophage TP901-1 (residues 1–122) (from UniProt O48503 1-122) (domain or fragment)
[1]
  stoichiometry N: 2
[2]
  stoichiometry N: 2

## P5 fragment containing OL
[3]
  Kd: 1100 nM
[4]
  Kd: 3 nM

B1: CI-CTD1, synthetic peptide of the dimerization region of CI repressor from bacteriophage TP901-1 (residues 90–125) (peptide)
peptide: ENIEETITVMKKLEEPRQKVVLDTAKIQLKEQDEQ
notes: CI repressor of Lactococcus lactis bacteriophage TP901-1, dimerization region CTD1; printed as residues 90-125 and as a 35 residues peptide; Delivered as a lyophilized chloride salt, purity 98.45%; solubilised at pH 12 and brought back to pH 7.5; source: synthetic peptide, bought: CASLO
[5]
  stoichiometry N: 4
